According to patent publication JP2020148511A (dated 2020):

Columns and labels:
[1] = target: A型インフルエンザウィルス亜型H1N1(A/Puerto Rico/8/1934)の核内タンパク質(NP抗原) (Influenza A virus H1N1 (A/Puerto …, UniProt P03466 1-498)); test: sandwich ELISA, […] (capture) […]
[2] = target: H1N1インフルエンザウィルスA型(A/Puerto Rico/8/34/Mount Sinai)由来のリコンビナント核内タンパク質 (Influenza A virus H1N1 (A/Puerto …, UniProt P03466 1-498)); test: phage ELISA, NP coated at 2 ug/mL, anti-M13 detection, A450

Binder | binding result [1] | binding result [2]
抗体A1 (VHH antibody having the amino acid sequence of SEQ ID NO: 1) (VHH) VHH: QLQLVESGGGLVQAGGSLRLSCAASGSAFSLYAMGWHRQAPGKQRELVAYITNGDITNYADSVQGRVIISRDNAKNTVYLHMNSLKPEDTAVYYCYAVGGRTFWGQGTQVTVSS | binds | –
抗体A3 (VHH antibody having the amino acid sequence of SEQ ID NO: 3) (VHH) VHH: EVQLVESGGGLVQPGGSLSLSCAASGFTFSNYYMGWFRQAPGKERQSLATVNSGGTGEAYADSIRGRFTISRDNAKNTVTLQMSSLQPEDTAVYYCARVDGRVLSTIVVSYDYWGQGTQVTVSS | binds | binds
抗体A4 (VHH antibody having the amino acid sequence of SEQ ID NO: 4) (VHH) VHH: EVQLVESGGGLVQAGDSLRLSCAASGRTFINLDMGWFRQPPGKEREYVAAITRNGAITSYADSAKGRFTISRDNAKNTVSLEMNSLKPEDTGVYYCAAYSISNYGSGWYKPDYWGQGAQVTVSS | binds | –
抗体A2 (VHH antibody having the amino acid sequence of SEQ ID NO: 2) (VHH) VHH: QVQLVESGGGLVQTGGPLRLSCAVSDRTDSNYAMGWFRQAPGKEREFVAAISGTGYVTGYADSARNRFTLSRDNGKNAVYLQMNSLEPADTAVYYCAATSDQRYPGPRSSGYDYWGQGTQVTVSS | binds | –
